According to US20060217290A1 (published 2006):

Key:
[1] = target: T1, human IGF-1 receptor (human, UniProt P08069 31-1367); experiment: competitive binding SPA, displacement of [125I]IGF-1 from human IGF-1R membranes
T1 construct: whole, on cells; Assayed as membrane preparation (P1) of transfected 293EBNA cells, not as intact cells; also called IGF-R; insulin growth factor receptor

[2] = target: T2, human insulin receptor (human, UniProt P06213 28-1382); experiment: competitive binding SPA, displacement of [125I] insulin from human IR membranes
T2 construct: whole, on cells; Assayed as membrane preparation (P1) of transfected 293EBNA cells, not as intact cells; also called IR; HIR

Relative IGF1-R Affinity (Mean) [1]: 1.1 relative to recombinant human insulin
Relative IR Affinity (Mean) [2]: 0.21 relative to recombinant human insulin
B1: A0^ArgA21^GlyB29^ArgB31^ArgB32^Lys-human insulin (ligand)
chain 1: RGIVEQCCTSICSLYQLENYCG
chain 2: FVNQHLCGSHLVEALYLVCGERGFFYTPRTRK
notes: Insulin analog; Disulfides A7-B7, A20-B19, A6-A11; also called ArgA0, GlyA21, ArgB29, ArgB31, LysB32-human insulin
